According to article PMC11257031 (Archives of biochemistry and biophysics, 2023):

Target: the molecule itself
Test: SEC

B1: Zymomonas mobilis pyruvate kinase (enzyme, UniProt O86020 1-475, looked up)
chain: MTEGLFPRGRKVRVVSTLGPASSTAEQIRDRFLAGADVFRINMSHGTHDEKKVIVDNIRALEKEFNRPTTILFDLQGPKLRVGDFKEGKVQLKEGQTFTFDQDPTLGDETRVNLPHPEIFKALDKGHRLLLDDGKIVVRCVESSPTKIVTRVEVPGPLSDHKGFNVPDVVIPLAALTPKDRKDLDFALKEKADWVALSFVQRVEDVIEAKELIKGRAPLLVKLEKPAAIENLESILAATDAVMVARGDLGVECLPESVPPTQKRIVERSRQLGKPVVVATAMLESMIKAPAPTRAEVSDVANAIYEGADGIMLSAESAAGDWPHEAVNMMHRIASYVENAPGYIERVRFTPTPAEPTTVDALAENASKTAETVGAKAIIVFTETGKTAQRVSRARPVAPILSLTPDAEVARRLGLVWGAQPVQVSTVKTLDEAKKLAAETAKKYGFAKAGDKLVVVAGEPFGKAGTTNIVDVIEA
In the case of B1, the “stoichiometry N” value is reported as 2.
